This note sets out measurements from publication PMC10681723, “The N-terminus of Spt16 anchors FACT to MCM2–7 for parental histone recycling” (Nucleic Acids Research, 2023).

This assay addresses Recombinant Saccharomyces cerevisiae histone H3/H4 (Saccharomyces cerevisiae, UniProt P61830 1-136; P02309 1-103). Description: pull-down; 2 μg GST-Mcm2HBD on Glutathione Sepharose; 0.1, 0.2 and 0.4 μg histone H3/H4 in 0.4 ml buffer A150 (25 mM Tris pH 7.5, 1 mM EDTA, 0.01% NP-40, 150 mM NaCl), 6 h, 4°C; CBB staining. The settings on record: both partners purified.

B1: GST-tagged Mcm2HBD (residues 1–200) (domain or fragment, yeast, UniProt P29469 1-200, looked up)
chain: MSDNRRRRREEDDSDSENELPPSSPQQHFRGGMNPVSSPIGSPDMINPEGDDNEVDDVPDIDEVEEQMNEVDLMDDNMYEDYAADHNRDRYDPDQVDDREQQELSLSERRRIDAQLNERDRLLRNVAYIDDEDEEQEGAAQLDEMGLPVQRRRRRRQYEDLENSDDDLLSDMDIDPLREELTLESLSNVKANSYSEWITQ
notes: also called GST-Mcm2HBD; source: E. coli BL21(DE3) CodonPlus RIL, pGEX4T-1, purified (Glutathione Sepharose)
On to B1, for which the binding result is given as “binds”.
